Measurements taken from patent US20080274967.
Positions count from the first letter of the chain named.

Key:
[1] = system: T1, PEDF AAA variant (S24,114, 227A)
T1 sequence: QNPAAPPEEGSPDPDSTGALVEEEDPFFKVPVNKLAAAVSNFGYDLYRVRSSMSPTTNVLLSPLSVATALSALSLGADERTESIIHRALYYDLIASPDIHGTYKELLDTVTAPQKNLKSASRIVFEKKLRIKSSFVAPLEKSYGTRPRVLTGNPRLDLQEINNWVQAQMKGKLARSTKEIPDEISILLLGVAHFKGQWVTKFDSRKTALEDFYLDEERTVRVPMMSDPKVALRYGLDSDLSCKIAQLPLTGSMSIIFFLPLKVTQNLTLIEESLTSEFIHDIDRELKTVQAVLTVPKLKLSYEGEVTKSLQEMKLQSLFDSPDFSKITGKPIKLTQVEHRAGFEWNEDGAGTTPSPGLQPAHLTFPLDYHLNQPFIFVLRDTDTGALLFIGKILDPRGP

[2] = system: T2, PEDF AAE variant (S24,114A, 227E)
T2 sequence: T1 sequence with A208E

[3] = system: T3, PEDF EEA variant (S24,114E, 227A)
T3 sequence: T1 sequence with A5E, A95E

[4] = system: T4, PEDF EEE variant (S24,114, 227E)
T4 sequence: T1 sequence with A5E, A95E, A208E

[5] = system: T5, PEDF S24,114E variant
T5 sequence: T1 sequence with A5E, A95E, A208S

[6] = system: T6, Recombinant human pigment epithelium derived factor (rPEDF)
T6 sequence: T1 sequence with A5S, A95S, A208S

For “Catalytic subunit of protein kinase A (PKA)”, the “in vitro phosphorylation by PKA” value [1] was “none of the triple mutants was phosphorylated by PKA”, the “in vitro phosphorylation by PKA” value [2] was “none of the triple mutants was phosphorylated by PKA” and the “in vitro phosphorylation by PKA” value [3] was “none of the triple mutants was phosphorylated by PKA”. The “in vitro phosphorylation by PKA” value [4] was “none of the triple mutants was phosphorylated by PKA”, the “in vitro phosphorylation by PKA after brief heat treatment of the variant” value [5] was “a brief heat treatment ... restored its phosphorylation by PKA” and the “in vitro phosphorylation by PKA ([γ32P]-ATP, SDS-PAGE, autoradiography)” value [6] was “rPEDF served as a good substrate to PKA”.
